Assay: yeast display, Sf9 membrane polyspecificity reagent, FACS + sequencing; frameworks hold sequencing errors
How it was run: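 A nanobody's polyreactivity label depends on the gate it was sorted from. Yeast display cells were stained with 10% biotinylated, detergent-solubilized Sf9 membrane reagent for 1 hour at 4 °C, enriched on streptavidin microbeads and sorted by FACS. The low and high (top ~1%) gates were set on anti-HA fluorescence for expression and streptavidin fluorescence for reagent binding.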

Sequence	polyreactivity (PSR sort gate)
QVQLVESGGGLVQAGGSLRLSCAASGLTFYYYVMGWYRQAPGKERELVAAISYSGGRTYYADSVKGRFTISRDNAKNTVYFQMNSLKPEDTEVYYCAAQSRYGGKFYYWGQGTQVTVSS	high polyreactivity
QVQLVESGGGLVQAGGSLRLSCAASGRTFVYNAMGWYRQAPGKERQLVAGITNGGSTNYADSVKGRFTISRDNAKNTVYLQMNSLKPEDTAVYYCAADSRVYPYYFGHFGFWGQGTQVTVSS	low polyreactivity
QVQLVQSAGGLVQAGGSLRLSCAASGSILSINGMGSYRQAPGKERELVATIDGSDGSTFYADSVKGRLTISRDNAKNTVYFQMNSLKPEDTAVYYCAAENLWQTKEYDYWGLGTQVTVSS	low polyreactivity
QVQLVESGGGLVQAGGSLRLSCAASGITFIYYAMGWYRQAPGKERELVAAISRSGGSTYYADSVKGRFTISRDNAKNTVYLQMNSLKPEDTAVYYCAADGTKFSGRVTGDYWGQGTQVTVSS	high polyreactivity
QVQLVESGGGLVQAGGSLRLSCAASGSIFDYNAMGWYRQAPGKERELVAAISRSGGSTYYADSVKGRFTISRDNAKNTVYLQMNSLKPEDTAVYYCAALPSRPRGYDYWGHGTQVTVSS	high polyreactivity
QVQLVESGGGLVQAGGSLRLSCAASGSIFDYYVMGWYRQSPGKERELVAAISLSGGSTYYADSVKGRFTISRDNAKNTVYLQMNSLKPEDTAVYYCNADSQWYDYDYWGQGTQVTVSS	high polyreactivity
QVQLVESGGGLVQAGGSLRLSCAASGFTCASNDMGWSRQAPGKERELVAAITKGGGRTYYADSVKGRFTISRDNAKNTVYLQMNSLKPEDTAVYYCAARQLIKYDYWGPGTQVTVSS	low polyreactivity
QVQLVESGGGLVQAGGSLRLSCAASGNIFSYNAMGWYRQAPGKERELVAGISTAGTTSYADSVKGRFTISRDNAKNTVYLQLNSLKPEDTAVYYCAKRRYYWTNLHYFLGYDYWGQGTQVTVSS	low polyreactivity
QVQLVESGGGLVQAGGSLRLSCAASGSIFASYAMGWYRQAPGKERELVAAISDGGGRTYYADSVKGRFTISRDNAKNTVYLQMNSLKPEDTAVYYCAAYAVYTYRRARGYWGQGTQVTVSS	high polyreactivity
QVQLVESGGGLVQAGGSLRLSCAASGRTFDRNAMGWYRQAPGKERELVAAISRGGTTYYADSVKGRFTISRDNAKNTVYLQMNSLKPEDTAVYYCARVGRYRYEWGQGTQVTVSS	high polyreactivity
QVQLVESGGGLVQAGGSLRLICAASGLIFVSYAMGWSRQAPGKERELVAAITYGGDSTFYADSVKGRFTISRDNAKNTVYLQMNSLKPEDTAVYYCNADIWFIWHSFGWGYDYWGQGTQVTVSS	low polyreactivity
QVQLVESGGGLVQAGGSLRLSCAASGSTFRGYVMGWYRQAPGKERELVASINWDGGSTYYADSVKGRFTISRDNAKNTVYLQMNSLKPEDTAVYYCAARRVGGGFYTWRNPAYEYWGQGTQVTVSS	high polyreactivity
QVQLVESGGGLVQAGGSLRLSCAASGSILKYYAMGWYRQAPGKERELLAAISWSGGRTYYADSVKGRFTISRDNAKNTVYLQMNSLKPEDTAVYYCAAENYGSGSWHGPEYDYWGQGTQVTVSS	low polyreactivity
QVQLVESGGGLVQAGGSLRLSCAASGRNFRGNTMGWYRQAPGKERELVAAITRGGSTSYADSVKGRFTISRDNAKNTVILQMNSLKPEDTAVYYCATRTHGEGTRRVSWGQGTQVTVSS	low polyreactivity
QVQLVESGGGLVQAGGSLRLSCAASGFIFGFYAMGWYRQAPGKERELVAAISWSGGSTYYADSVKGRFTISRDNAKNTVYLQMNSLKPEDTAGYYCAAYFYYLDDAVTYDYWGQGTQVTVSS	low polyreactivity
QVQLVESGGGLVQAGGSLRLSCAASGFISPPYAMGWYRQAPGKERELVAAIRSSGGSTYYADSVKGRFTISRDNAKNTVYLQMNSLIPEDTAVYYCNADWIYISSYGWYSYDYWGQGTQVTVSS	high polyreactivity
QVQLVESGGGLVQAGGSLRLSCAASGRIFRYNAMGWYRQAPGKERELVAAISWGGGSTYYADSVKGRFTISRDNAKNTVYLQMNSLKPEDTAVYYCAVTSGSSFRMGYWGQGTQVTVSS	high polyreactivity
QVQLVESGGGLVQAGGSLRLSCAASGNTFWSYAMGWYRQAPGKERELVAAISFSGGSTNYADSVKGRFTISRDNAKNTVYLQMNSLKPEDTAVYYCAAYFYAPLTYYSWYDYWGQGTQVTVSS	high polyreactivity
QVQLVESGGGLVQAGGSLRLSCAASGSTFSLYAMGWYRQAPGKERELVARISYTDGSTYYADSVKGRFTISRDNAKNTVYLQMNSLKPEDTAVYYCAADAWYSYTLEDYWGQGTQVTVSS	low polyreactivity
QVQLVESGGGLVQAGGSLRLSCAASGIIFGYNAMGLYRQAHGKERELVASIDVSGGITYYADSVKGRFTISRDNAKNTVYLQMNSLKPEDTAVYYCAAAVYGRGSPHYYWGEGTQVTVSS	high polyreactivity
QVQLVESGGGLVQAGGSLRLSCAASGFIFPGYAMGWYRQAPGKERELVATISRRGGSTYYADSVKGRFTISRDNAKNTVYLQMNSLQPEDTAVYYCNRIVTYGWQYDYDYWGQGTQVTVSS	high polyreactivity
QVQLVESGGGLVQAGGSLRLSCAASGRIWSRYAMGWYRQAPGKERELVAAITQSGTSTYYADSVKGRFTFSRDNAKNTVYLQMNSLKPEDTAVYYCNAYRQYRYDYWGQGTQVTVSS	low polyreactivity

Sequence	polyreactivity (PSR sort gate)
QVQLVESGGGLVQAGGSLRLSCAASGSIFISYDIGWYRHAPGKETELVAAIRSRVGSTYYADSVKGRFTISRDNAKNTVYLQMKSLKPEDTAVYYCNKDNAVDRLPWFQVTYEYWGQGTQVTVSS	low polyreactivity
QVQLVESGGGLVQAGGSLRLSCPASGSIFGWYPMAWYRQAPGKERELVAAITFYSVNTYYQDSVKGRFTISRDNAKNNVYLQMNSLKPEDTAVYYCSARGATVVSRGKLYYWGQGTQVSVSS	low polyreactivity
QVHLVESGGGLVQAGGSLRLSCAPSGRTFFINAMGWYRQAPGKERELVAAIRVGAGSTYYADSVKGRFTISRDNAKNTVYLQMNSLKPEDTAVYYCAAKRVGSREYYWGQGTQVTVSS	high polyreactivity
QVQLVESGGGLVQAGGSLRLSCAASGSTFRYYAMGWYRQAPGKERELVAAISGSGGRTYYADSVKGRFTISRDNAKNTVYLQMNSLKPEYTAVYYCNTRGRSTDYDYWGQGTQVTVSS	high polyreactivity
QVQLVESGGGLDQAGGSLRLSCAASGSTFRWYAMGWYRQAPGKERELVAAISSSGGSTYYADSVKGRFTISRDNAKNTVYLQMNSLKPEDTAVYYCAADFTGPFDYWGQGTQVTVSS	high polyreactivity
QVQLVESGGGLVQAGGSLRLSCAASGSTFVGNAMGWYRHAPGKEREMVATISNSGGRTYYADSVKGRFTISRDNAKNTVYLQLNSLKPEDTEVYYCAADHPAFGPGYSFDYWGQGTQVTVSS	low polyreactivity
QVQIVESGGGLVQAGGSLRLICAASGIIFEGYAMGWYRQAPGKERELVAAISQSGGSTRYADSVKGRFTISRDNATNTVYLQMNSLKPEDTAVYYFAKEVWNWGPYYYWGQGTQVTVSS	low polyreactivity
QVQLVESGGGLVQAGGSLRLSCAASGRIFFKYAMGWYRQAPGKERELVAAISKTGGRTYYADSVKGRFTISRDNAKNTVYLQMNSLKPEDTAVYYCRGYTSFGYDYWGQGTQVTVSS	high polyreactivity
QVQLVESGGGLVQAGGSLRLSCAASGFSFKSYAMGWYRQAPGKERELVAAISRGTSTKYADSVKGRFTISRDNAKNTVYLQMNSLKPEDTAVYNCAALFPTSDLRLRYYRYDYWGQGTQVTVSS	low polyreactivity
QVQLVESGGGLVQAGGSLRLSCAASGSTFPYYAMGWYRQAPGKERELVAAITSGGSTNYADSVKGRFTISRDNAKNTVYLQMNSLKPEDTAVYYCNADTTYLSDYVTFDYWGQGTQVTVSS	low polyreactivity
QLQLVESGGGLVQAGGSLRLSCAASGSIFDGNAMGWYRQAPGKERELVAAITNSGGSTYYADSVKGRFTISRDNAKNTVYLQMNSLKPEDTAVYYCNALPFAWRRYRWVRTMYYWGQGTQVTVSS	low polyreactivity
QVQLVESGGGLVQAGGSLRLSCAASGRIFSVKVMGWYRQAPGKERELVAAITWSVGSTYYADSVKGRFTISRDNPKNTVSLQMNSLKREDTAVYYCAARGPPVYGRVGGYHYWGQGTQVTVSS	low polyreactivity
QVQLVESGGGLVQAGGSLRLSCAASGFIFKRYAMGWNRQAPGKVRELVAAITSRGGSTYYADSVKGRFTISRDNAKNTVYLQMNSLKPEDTAVYYCNAGTSAGSYDYWGQGTQVTVSS	high polyreactivity
QVQLVESGGGLVQAGGSLRLSCAASGLIFPYYAMGWYRQAPGKERELVAAISGSGGRTYNADSVKWRFTISRDNAKNTVYLQMNSLKPEDPAVYYCAAAVLDRYTRYIWYIFDYWGQGTQVTVSS	high polyreactivity
QVQLVESGGGLVQAGCSILLSCAASGRIFDNYAMGWSRQAPGKERELVAASRYSDDATDYADSVKGRFTISRDNAKNTVYLQMNSLIPEDPAVYYCAADVKRYGWEYGYWGQGTQVTVSS	low polyreactivity
QVQLVESGGGLVQAGGSLRLSCAASGFTFTRNAMGWYRQAPGKERELVAAISGSGGSTYYADSVKGRFTISRDNAKNTVYLQMNSLKPEDTAVYYCAAPLPWAYAYDYWGQGTQVTVSS	high polyreactivity
QVQLVESGGGLVQAGGSLRLSCAASGYTVLYAIGWYRQAPRKDRELVAAISSRTGTTYYADSVKGRFTISRDNAKNSVYLQMNSLKREDTAVYYCNVEYFYYFRENGDYWGQGTQVTVSS	low polyreactivity
QVQLVESGRGLVQAGGSLRLSCAASGYTFSNYGMGWYRQAPGKERELVAGIILGGSSTYYADSVKGRFTISRDNAKNTVYLQMNSLKPEDTAVYYCAAYVTGRYDWGQGTQVTVSS	high polyreactivity
QVQLVESGGGLVQAGGSLRLSCAASVPTFPFNAMGWYRQAPGKERELVAAISWRDGRTYYADSVKGRFTISRDNAKNTVYLQMNSLKPEDTAVYYCNVVKRRSDWGMDYWGQGTKVTVSS	high polyreactivity
QVQLVESGGGLVQAGGSLRLSCAASGLTFYDYAMGWYRQAPGKERELVAAISSGGSTYYADSVKGRFTISRDNAKNTVYLHMNSLKPEDTAVYYCAARPAYRVHAMGYWGQGTQVTVSS	low polyreactivity
QVQLVESGGGLVQAGGSLRLSCAASGSTLYYNAMGWYRQAPGKERELVAAISWSGGSTYYADSVKGRFTISRDNAKNTVYLQMNSLKPEDTAVYYCAAELSSYYDYDYWGQGTQVTVSS	low polyreactivity

— the nanobody polyreactivity screen of Harvey et al. (2022)
